PMC4859522

Assays:
[1] = molecular target: RSV clinical isolate A2001/2-20 fusion (F) protein (respiratory syncytial virus strain A2001/2-20); assay: co-IP; 293T cells co-transfected with EGFR and an RSV F construct; RIPA lysates 24 h after transfection; F precipitated with motavizumab on protein-A magnetic beads overnight at 4°C, washed in RIPA; blots for EGFR and RSV F, ratio of EGFR to F1
[2] = molecular target: Epidermal growth factor receptor (UniProt P00533)

Row | Substance | fold ratio of co-precipitated EGFR to F, against A2 F [1] [fold] | ratio of p-EGFR to EGFR by Western blot in serum-starved HEp-2 cells 24 h after transfection with 2–20 F, against A2 F [2] [fold]
1 | Epidermal growth factor receptor (from UniProt P00533 25-1210) | 2.8 | –
2 | RSV clinical isolate A2001/2-20 fusion (F) protein (natural protein) | – | 4.45
